Legend:
[1] = biological target: T1, RX protein purified from the culture supernatant of ADSF cells (murine mammary tumor virus (MMTV) …, UniProt P03374 99-474; P03374 475-651); experiment: SPR
T1 construct: also called purified RX protein; ADSF cell-derived RX protein

[2] = biological target: T1, RX protein purified from the culture …; experiment: SPR (ProteOn XPR36), antibody immobilised by amine coupling on a GLM chip, purified RX protein as analyte
From the text: (§1) Each antibody was immobilized on a sensor chip (Sensor Chip GLM; Bio-Rad Laboratories, Inc.) by the amine coupling method. The chip was blocked by the addition of 1 M ethanolamine hydrochloride (pH 8.5). ProteOn PBS/Tween, pH 7.4 (PBS, pH 7.4, 0.005% Tween 20) was used as a running buffer solution. The purified RX protein was serially diluted and interacted as an analyte with the immobilized monoclonal antibody to determine the binding affinity. The association rate constant ka and the dissociation rate constant kd were calculated by kinetics analysis using ProteOn Manager™.

[3] = biological target: T1, RX protein purified from the culture …; experiment: SPR (ProteOn XPR36), antibody immobilized by amine coupling, RX protein as analyte
From the text: as §1

[4] = biological target: T1, RX protein purified from the culture …; experiment: SPR (ProteOn XPR36) by the method of Example 4: antibody immobilized, RX protein as analyte
From the text: as §1

B1: chimerized MAb1 (rat-human chimeric antibody) (antibody, V domains shown)
VH: EVQLVESGGGLVQPGRSLKLSCVGSGFTFSDYYMAWVRQAPKKGLEWVASISYEGSNTNFGDSVKGRFTISRDSAKSTLYLQMNSLRSEDTATYYCARWAQTGYYFDYWGQGVMVTVSS
VL: DIQMTQSPASLSASLGETVTIECLASEDIYSNLAWYQQKPGKSPQLLIYYANSLNDGVPSRFSGSGSGTQFSLKINSLQSEDVSIYFCQQNYDSPYTFGAGAKLELKRA
Q: Which Kd [1] does the source give for B1 here?
A: 0.22 nM

B2: Monoclonal Antibody 2 (MAb2) (antibody, V domains shown)
VH: EVKLQESGPELKKPGETVKISCKASGYTFRDYPIHWVKQAPGKGLKWMGWINTETGEPTYADDFKGRFAFSLETSANTTYLQINNLKNEDTATYFCTPRFTYWGQGTLVTVSS
VL: DIVMTQTPSSLAVSVGEKVTMSCKSSQNLLYSGNQKNYLAWFQQKPGQSPKLLIYWASTRESGVPDRFTGSGSGTDFTLTLSSVKAEDLAVYYCQQSYRYPYTSGGGTKLEIKR
Q: What does the source list for B2?
A: Kd [2]: 0.26 nM; koff [2]: 0.00021 s⁻¹; kon [2]: 810000 M⁻¹ s⁻¹; Kd [3]: ~0.1 nM

B3: Monoclonal Antibody 4 (MAb4) (antibody, V domains shown)
VH: QVKLEESGAELVKPGASVKMSCKASGYTFTIYNIHWVKQTPRQGLEWIGTIFPVNGDTSYNQRFKGKATLTADKSSNTAYMQLSGLTSEDSALYYCARSTTARAWFPYWGQGTLVTVSA
VL: HIVITQTQKFMSTSVGDRVSVTCKASQNVGSNVAWYQQKPGQSPKVLIYSASYRYSGVPDRFTGSGSGTDFTLTISNVQSEDLADFFCQQYNTSPFTFGGGTKLEIK
Q: How did the Kd [4] turn out when B3 was run?
A: 0.14 nM

Source: patent US20140010817A1 (Daiichi Sankyo, published 2014)
